For data set [1], the target named is T1, 26mer peptide of γ-gliadin.
T1 chain: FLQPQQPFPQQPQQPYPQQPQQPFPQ

Data set [2] addresses T2, 33mer peptide of α-gliadin.
T2 chain: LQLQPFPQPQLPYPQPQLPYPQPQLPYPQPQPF

B1: Kuma020 (protein)
chain: AAPTAYTPLDVAQAYQFPEGLDGQGQCIAIIELGGGYDEASLAQYFASLGVPAPQVVSVSVDGASNQPTGDPKGPDGEVELDIEVAGALAPGAKFAVYFAPDTTAGFLDAITTAIHDPTLKPSVVSISWSGPEDSWTSAAIAAMNRAFLDAAALGVTVLAAAGDSGSTSGEQDGLYHVHFPAASPYVLACGGTRLVASGGRIAQETVWNDGPDGGATGGGVSRIFPLPAWQEHANVPPSANPGASSGRGVPDLAGNADPATGYEVVIDGEATVTGGTSAVAPLFAALVARINQKLGKAVGYLNPTLYQLPADVFHDITEGNNDIANRAQIYQAGPGWDPCTGLGSPIGVRLLQALLPSASQPQPGSTENLYFQSGALEHHHHHH
On to B1, for which the “appearance of peptide breakdown products over time” value (from here on “appearance … over time”) in data set [1] and in data set [2] was “Kuma020 demonstrated a moderate amount of activity on both peptides” in each case. Also, the entries for the “Activity Improvement over Background (Kuma010)” value with peptides containing PQL and with peptides containing PQQ were 7-19x (PQL) and 15-35x (PQQ), respectively.

B2: Kuma050 (protein)
chain: AAPTAYTPLDVAQAYQFPEGLDGQGQCIAIIELGGGYDEASLAQYFASLGVPAPQVVSVSVDGASNQPTGDPEGPDGEVTVDIEVAGALAPGAKFAVYFAPDTTAGFLDAITTAIHDPTLKPSVVSISWSGPEDSWTSAAIAAMNRAFLDAAALGVTVLAAAGDQGSTSGEQDGLYHVHFPAASPYVLACGGTRLVASGGRIAQETVWNQGPDGGATGGGVSRIFPLPAWQEHANVPPSANPGASSGRGVPDLAGNADPQTGYEVVIDGEATVIGGTSAVAPLFAALVARINQKLGKAVGYLNPTLYQLPADVFHDITEGNNDIANRAQIYQAGPGWDPCTGLGSPIGVRLLQALLPSASQPQPGSTENLYFQSGALEHHHHHH
What is called Km is the concentration of substrate that gives half-maximal velocity. In general, Vmax refers to the rate approached at saturating substrate. The term kcat/Km denotes the second-order rate constant that governs catalysis at low substrate concentration. Take B2: in the data set with DQ2.5-glia-α1a, the Kcat was determined as 14.2 s⁻¹, the Km was found to be 2.5 mM, the Vmax is 1.42e-06 M/s and the kcat/Km was found to be 5610 M⁻¹ s⁻¹. In addition, in the data set with DQ2.5-glia-ω1, the Kcat came out at 27.8 s⁻¹, the Km came to 5 mM, the Vmax stood at 2.78e-06 M/s and the specificity constant (kcat/Km) was 56 M⁻¹ s⁻¹. Further, the “appearance … over time” value in data set [1] is given as “very poor activity on the 26mer peptide”. Besides, the “appearance … over time” value in data set [2] was “Kuma050 demonstrated good activity on the 33mer peptide”. In addition, in the data set with peptides containing PQL, the “Activity Improvement over Background (Kuma021)” value is 1.5-2x (PQL). For the same protein, the “Activity Improvement over Background (Kuma021)” value with peptides containing PQQ is reported as 0.01-0.2x (PQQ).

B3: Kuma040 (protein)
chain: AAPTAYTPLDVAQAYQFPEGLDGQGQCIAIIELGGGYDEASLAQYFASLGVPAPQVVSVSVDGASNQPTGDPKGPDGEVTLDIEVAGALAPGAKFAVYFAPDTTAGFLDAITTAIHDPTLKPSVVSISWAGPEDSWTSAAIAAMNRAFLDAAALGVTVLAAAGDSGSTGGEQDGLYHVFFPAASPYVLACGGTRLVASGGRIAQETVWNQGPDGGATGGGVSRIFPLPAWQEHANVPPSANPGASSGRGVPDLAGNADPQTGYEVVIDGEATVTGGTSAVAPLFAALVARINQKLGKAVGYLNPTLYQLPADVFHDITEGNNDIANRAQIYQAGPGWDPCTGLGSPIGVRLLQALLPSASQPQPGSTENLYFQSGALEHHHHHH
In the case of B3, in the data set with DQ2.5-glia-α1a, the Kcat is 16.3 s⁻¹, the Km came out at 0.86 mM, the Vmax worked out at 1.49e-06 M/s and the kcat/Km turned out to be 19100 M⁻¹ s⁻¹. In the data set with DQ2.5-glia-ω1, the Kcat worked out at 24.6 s⁻¹, the Km was 15.3 mM, the Vmax is 2.46e-06 M/s and the kcat/Km amounted to 1600 M⁻¹ s⁻¹. Further, the “appearance … over time” value in data set [1] is “Kuma040 demonstrated activity almost as potent as Kuma030 especially against the 26mer peptide”. The “appearance … over time” value in data set [2] is “Kuma040 demonstrated activity almost as potent as Kuma030 especially against the 26mer peptide”. Further, the “Activity Improvement over Background (Kuma010)” value with peptides containing PQL was 35-50x (PQL). In addition, the “Activity Improvement over Background (Kuma010)” value with peptides containing PQQ is reported as 30-40x (PQQ);.

B4: Kuma070 (protein)
chain: AAPTAYTPLDVAQAYQFPEGLDGQGQCIAIIELGGGYDEASLAQYFASLGVPAPQVVSVSVDGASNQPTGDPKGPDGEVTLDIEVAGALAPGAKFAVYFAPDTTAGFLDAITTAIHDPTLKPSVVSISWAMPEDSWTSAAIAAMNRAFLDAAALGVTVLAAAGDSGSTGGEQDGLYHVFFPAASPYVLACGGTRLVASGGRIAQETVWNQGPDGGATGGGVSRIFPLPAWQEHANVPPSANPGASSGRGVPDLAGNADPQTGYEVVIDGEATVTGGTSAVAPLFAALVARINQKLGKAVGYLNPTLYQLPADVFHDITEGNNDIANRAQIYQAGPGWDPCTGLGSPIGVRLLQALLPSASQPQPGSTENLYFQSGALEHHHHHH
B4: the “Activity Improvement over Background (Kuma040)” value in the data set with DQ2.5-glia-α1a was 2-3x (PQL); with DQ2.5-glia-ω1 it was 2-4x (PQQ).

B5: Kuma021 (protein)
chain: AAPTAYTPLDVAQAYQFPEGLDGQGQCIAIIELGGGYDEASLAQYFASLGVPAPQVVSVSVDGASNQPTGDPKGPDGEVELDIEVAGALAPGAKFAVYFAPDTTAGFLDAITTAIHDPTLKPSVVSISWSGPEDSWTSAAIAAMNRAFLDAAALGVTVLAAAGDSGSTSGEQDGLYHVHFPAASPYVLACGGTRLVASGGRIAQETVWNQGPDGGATGGGVSRIFPLPAWQEHANVPPSANPGASSGRGVPDLAGNADPQTGYEVVIDGEATVTGGTSAVAPLFAALVARINQKLGKAVGYLNPTLYQLPADVFHDITEGNNDIANRAQIYQAGPGWDPCTGLGSPIGVRLLQALLPSASQPQP
Turning to B5, the figures for the “Activity Improvement over Background (Kuma020)” value with peptides containing PQL and with peptides containing PQQ were 1-2x (PQL) and 1.2-2.5x (PQQ), respectively.

B6: Kuma031 (protein)
chain: AAPTAYTPLDVAQAYQFPEGLDGQGQCIAIIELGGGYDEASLAQYFASLGVPAPQVVSVSVDGASNQPTGDPEGPDGEVTLDIEVAGALAPGAKFAVYFAPDTTAGFLDAITTAIHDPTLKPSVVSISWSGPEDSWTSAAIAAMNRAFLDAAALGVTVLAAAGDQGSTSGEQDGLYHVHFPAASPYVLACGGTRLVASGGRIAQETVWNQGPDGGATGGGVSRIFPLPAWQEHANVPPSANPGASSGRGVPDLAGNADPQTGYEVVIDGEATVTGGTSAVAPLFAALVARINQKLGKAVGYLNPTLYQLPADVFHDITEGNNDIANRAQIYQAGPGWDPCTGLGSPIGVRLLQALLPSASQPQP
As to B6, the “Activity Improvement over Background (Kuma030)” value in the data set with peptides containing PQL is “No change (PQL);”.

B7: Kuma041 (protein)
chain: AAPTAYTPLDVAQAYQFPEGLDGQGQCIAIIELGGGYDEASLAQYFASLGVPAPQVVSVSVDGASNQPTGDPKGPDGEVTLDIEVAGALAPGAKFAVYFAPDTTAGFLDAITTAIHDPTLKPSVVSISWAGPEDSWTSAAIAAMNRAFLDAAALGVTVLAAAGDSGSTGGEQDGLYHVFFPAASPYVLACGGTRLVASGGRIAQETVWNQGPDGGATGGGVSRIFPLPAWQEHANVPPSANPGASSGRGVPDLAGNADPQTGYEVVIDGEATVTGGTSAVAPLFAALVARINQKLGKAVGYLNPTLYQLPADVFHDITEGNNDIANRAQIYQAGPGWDPCTGLGSPIGVRLLQALLPSASQPQP
Turning to B7, the “Activity Improvement over Background (Kuma040)” value with peptides containing PQL is on record as 1.0-1.2x (PQL).

B8: Kuma042 (protein)
chain: AAPTAYTPLDVAQAYQFPEGLDGQGQCIAIIELGGGYDEASLAQYFASLGVPAPQVVSVSVDGASNQPTGDPKGPDGEVTLDIEVAGALAPGAKFAVYFAPDTTAGFLDAITTAIHDPTLKPSVVSISWAGPEDSWTSAAIAAMNRAFLDAAALGVTVLAAAGDSGSTGGEQDGLYHVFFPAASPYVLACGGTRLVASGGRIAQETVWNQGPDGGATGGGVSRIFPLPAWQEHANVPPSANPGASSGRGVPDLAGNADPQTGYEVVIDGEATVTGGTSAVAPLFAALVARINQKLGKAVGYLNPTLYQLPADVFHDITEGNNDIANRAQIYQAGPGWDPCTGLGSPIGVRLLQALLPSASQPQP
Take B8: the “concentration of peptide breakdown product PFPQPQ over time” value in the data set with DQ2.5-glia-α1a is listed as “Kuma042 even shows a slight increase in activity against this substrate compared to Kuma040”. The “Activity Improvement over Background (Kuma041)” value in the data set with peptides containing PQL is reported as 1.2-1.5x (PQL).

B9: Kuma062 (protein)
chain: AAPTAYTPLDVAQAYQFPEGLDGQGQCIAIIELGGGYDEASLAQYFASLGVPAPQVVSVSVDGASNQPTGDPEGPDGEVTLDIEVAGALAPGAKFAVYFAPDTTAGFLDAITTAIHDPTLKPSVVSISWSMPEDSWTSAAIAAMNRAFLDAAALGVTVLAAAGDQGSTSGEQDGLYHVHFPAASPYVLACGGTRLVASGGRIAQETVWNQGPDGGATGGGVSRIFPLPAWQEHANVPPSANPGASSGRGVPDLAGNADPQTGYEVVIDGEATVTGGTSAVAPLFAALVARINQKLGKAVGYLNPTLYQLPADVFHDITEGNNDIANRAQIYQAGPGWDPCTGLGSPIGVRLLQALLPSASQPQP
On to B9, for which, in the data set with DQ2.5-glia-ω1, the “detection of full-length peptide and of the PFPQPQ breakdown product over time” value is on record as “Kuma062 demonstrates a higher level of enzymatic activity than Kuma030 or Kuma040”.

B10: Kuma032 (protein)
chain: AAPTAYTPLDVAQAYQFPEGLDGQGQCIAIIELGGGYDEASLAQYFASLGVPAPQVVSVSVDGASNQPTGDPEGPDGEVTLDIEVAGALAPGAKFAVYFAPDTTAGFLDAITTAIHDPTLKPSVVSISWSGPEDSWTSAAIAAMNRAFLDAAALGVTVLAAAGDQGSTSGEQDGLYHVHFPAASPYVLACGGTRLVASGGRIAQETVWNQGPDGGATGGGVSRIFPLPAWQEHANVPPSANPGASSGRGVPDLAGNADPQTGYEVVIDGEATVTGGTSAVAPLFAALVARINQKLGKAVGYLNPTLYQLPADVFHDITEGNNDIANRAQIYQAGPGWDPCTGLGSPIGVRLLQALLPSASQPQP
In the case of B10, the “concentration of peptide breakdown product PFPQPQ over time” value with DQ2.5-glia-α1a is “Kuma032 and Kuma042 demonstrate comparable activity as Kuma030 and Kuma040”. Moreover, the “Activity Improvement over Background (Kuma031)” value with peptides containing PQL is recorded as “No change (PQL);”.

B11: Kuma010 (protein)
chain: AAPTAYTPLDVAQAYQFPEGLDGQGQCIAIIELGGGYDEASLAQYFASLGVPAPQVVSVSVDGASNQPTGDPKGPDGEVELDIEVAGALAPGAKFAVYFAPDTTAGFLDAITTAIHDPTLKPSVVSISWSGPEDSWTSAAIAAMNRAFLDAAALGVTVLAAAGDSGSTGGEQDGLYHVHFPAASPYVLACGGTRLVASGGRIAQETVWNDGPDGGATGGGVSRIFPLPAWQEHANVPPSANPGASSGRGVPDLAGNADPATGYEVVIDGEATVIGGTSAVAPLFAALVARINQKLGKAVGYLNPTLYQLPADVFHDITEGNNDIANRAQIYQAGPGWDPCTGLGSPIGVRLLQALLPSASQPQGSTENLYFQSGALEHHHHHH
For B11, in the data set with DQ2.5-glia-α1a, the Kcat is 3.7 s⁻¹, the Km was found to be 4.6 mM, the Vmax turned out to be 3.7e-07 M/s and the kcat/Km is 819 M⁻¹ s⁻¹. In addition, in the data set with DQ2.5-glia-ω1, the Kcat was 1.2 s⁻¹, the Km came out at 16.4 mM, the Vmax is 1.22e-07 M/s and the kcat/Km turned out to be 74 M⁻¹ s⁻¹.

The values are drawn from patent US20180142226.
